This note sets out measurements from article PMC4690985.

The target in test [1] is TNH αβγ trimer (Streptomyces rimosus) (UniProt B6CWJ3). As to the kind of experiment: native MS.
Test [2] concerns the target Toyocamycin nitrile hydratase (TNH) α subunit (Streptomyces rimosus) (UniProt B6CWJ3). As to the kind of experiment: native MS.

As for “TNH αβγ trimer (from UniProt B6CWJ3 1-195) (complex)”, in test [1], the stoichiometry N (commonly the number of molecules, sites or subunits per partner or assembly) turned out to be 2.

Turning to “Toyocamycin nitrile hydratase (TNH) β subunit (natural protein)”, the abundance of the αβ dimer among the SID products (αβγ trimer = 100%) in test [2] is 32%.
